Reference: the supplement of paper PMC10724198
± gives the standard deviation of the averaged measurements.

Experiments:
[1] = system: Saccharomyces cerevisiae; test: protein stability index of tFT-peptide fusion (C-terminal peptide) (PSI (0-1 scale)); higher = more stable (slower turnover)
Description: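 MPS profiling in S. cerevisiae of the tFT-X12 degron library: putative degron peptides plus stable controls, 12 aa, fused to the C-terminus of a sfGFP-mCherry timer. Cells are FACS-sorted into 8 mCherry/sfGFP bins and deep-sequenced. PSI runs from 0 (unstable) to 1 (stable). Backgrounds are wild type, das1Δ and doa10Δ at 30 °C, and wild type, das1Δ, cdc34-1 and cdc53-1 at 37 °C; 2-3 technical replicates each.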

[2] = system: Saccharomyces cerevisiae; test: as above; details: genetic background: wild type; temperature: 30 C
[3] = genetic background: cdc34-1, temperature: 37 C
[4] = genetic background: cdc53-1, temperature: 37 C
[5] = genetic background: das1 deletion, temperature: 30 C
[6] = genetic background: das1 deletion, temperature: 37 C
[7] = genetic background: doa10 deletion, temperature: 30 C
[8] = genetic background: wild type, temperature: 30 C
[9] = genetic background: wild type, temperature: 37 C
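Also: PSI is a weighted mean of sequencing reads over stability bins, variants kept only with over 10 reads, mCherry proximal and sfGFP distal, peptide attached via GGGS linker.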

| Sequence | protein stability index [1, 3] | protein stability index [1, 4] | protein stability index [1, 5] | protein stability index [1, 6] | protein stability index [1, 7] | protein stability index [1, 8] | protein stability index [1, 9] | protein stability index [2] |
| --- | --- | --- | --- | --- | --- | --- | --- | --- |
| LVCSRFLFAFHC | 0.45678 ± 0.00016 | 0.686 ± 0.022 | 0.604 ± 0.037 | 0.699 ± 0.014 | 0.076 ± 0.0097 | 0.0796 ± 0.0047 | 0.104 ± 0.012 | 0.145 ± 0.011 |
| LVFFLFFFRCFS | 0.506 ± 0.059 | 0.514 ± 0.016 | 0.37 ± 0.049 | 0.534 ± 0.014 | 0.3734 ± 0.0018 | 0.36 ± 0.033 | 0.488 ± 0.0042 | 0.449 ± 0.035 |
| LVFGFSLILRVG | 0.168 ± 0.025 | 0.203 ± 0.0096 | 0.272 ± 0.054 | 0.356 ± 0.016 | 0.139 ± 0.016 | 0.128 ± 0.0069 | 0.234 ± 0.018 | 0.2132 ± 0.00073 |
| LVRDEVLKVKLV | 0.6432 ± 0.004 | 0.718 ± 0.011 | 0.643 ± 0.018 | 0.722 ± 0.013 | 0.138 ± 0.0093 | 0.17 ± 0.021 | 0.244 ± 0.0095 | 0.297 ± 0.014 |
| LVRGSRLIVIVG | 0.444 ± 0.01 | 0.473 ± 0.028 | 0.333 ± 0.025 | 0.5181 ± 0.0045 | 0.289 ± 0.0053 | 0.328 ± 0.034 | 0.492 ± 0.019 | 0.423 ± 0.026 |
| LYTFCSMDANPM | 0.397 ± 0.019 | 0.439 ± 0.011 | 0.439 ± 0.019 | 0.383 ± 0.033 | 0.488 ± 0.028 | 0.468 ± 0.0092 | 0.407 ± 0.04 | 0.4016 ± 0.0012 |
| MALAVRVVYCGA | 0.349 ± 0.015 | 0.391 ± 0.01 | 0.293 ± 0.023 | 0.4395 ± 0.0024 | 0.234 ± 0.011 | 0.283 ± 0.027 | 0.415 ± 0.021 | 0.378 ± 0.0028 |
| MFTIYISFVFAF | 0.197 ± 0.0067 | 0.277 ± 0.0087 | 0.195 ± 0.029 | 0.3305 ± 0.00089 | 0.179 ± 0.017 | 0.214 ± 0.0098 | 0.2844 ± 0.0023 | 0.269 ± 0.039 |
| MSQVRYQRATRA | 0.657 ± 0.074 | 0.676 ± 0.044 | 0.608 ± 0.0071 | 0.692 ± 0.0087 | 0.526 ± 0.021 | 0.535 ± 0.023 | 0.648 ± 0.011 | 0.54 ± 0.067 |
| NDKGKKTKIKIV | 0.659 ± 0.025 | 0.72 ± 0.057 | 0.64 ± 0.067 | 0.7368 ± 0.0053 | 0.187 ± 0.011 | 0.185 ± 0.024 | 0.343 ± 0.029 | 0.254 ± 0.058 |
| NENQIKVIMLLV | 0.4964 ± 0.0021 | 0.572 ± 0.092 | 0.344 ± 0.052 | 0.555 ± 0.0077 | 0.153 ± 0.0095 | 0.196 ± 0.04 | 0.268 ± 0.011 | 0.266 ± 0.011 |
| NRFRLFRLNFSV | 0.68 ± 0.042 | 0.724 ± 0.052 | 0.606 ± 0.02 | 0.751 ± 0.014 | 0.161 ± 0.0037 | 0.168 ± 0.024 | 0.36 ± 0.049 | 0.302 ± 0.015 |
| PATPPLRFPPSA | 0.702 ± 0.032 | 0.7349 ± 0.0039 | 0.648 ± 0.01 | 0.7356 ± 0.0028 | 0.67 ± 0.033 | 0.668 ± 0.012 | 0.7075 ± 0.0036 | 0.409 ± 0.0081 |
| PCTFYLFWMFFV | 0.4168 ± 0.0038 | 0.565 ± 0.042 | 0.43 ± 0.018 | 0.6011 ± 0.0014 | 0.223 ± 0.011 | 0.228 ± 0.021 | 0.328 ± 0.0081 | 0.3041 ± 0.002 |
| PFGPTFSPRPFR | 0.727 ± 0.048 | 0.767 ± 0.011 | 0.684 ± 0.015 | 0.7793 ± 0.0072 | 0.692 ± 0.023 | 0.701 ± 0.013 | 0.747 ± 0.0083 | 0.773 ± 0.022 |
| PFLSLPFLFPSS | 0.715 ± 0.026 | 0.769 ± 0.012 | 0.684 ± 0.0075 | 0.7675 ± 0.0052 | 0.687 ± 0.027 | 0.696 ± 0.027 | 0.757 ± 0.016 | 0.531 ± 0.14 |
| PFSLCFVFPFFF | 0.52 ± 0.021 | 0.5891 ± 0.0011 | 0.567 ± 0.035 | 0.6329 ± 0.0063 | 0.143 ± 0.0063 | 0.174 ± 0.0044 | 0.28 ± 0.0092 | 0.187 ± 0.0097 |
| PGWALLQLVFLK | 0.363 ± 0.004 | 0.298 ± 0.039 | 0.346 ± 0.032 | 0.4845 ± 0.0029 | 0.496 ± 0.035 | 0.353 ± 0.021 | 0.464 ± 0.011 | 0.456 ± 0.012 |
| PHHSPPTGPPND | 0.673 ± 0.011 | 0.737 ± 0.018 | 0.648 ± 0.008 | 0.7171 ± 0.0041 | 0.663 ± 0.014 | 0.658 ± 0.007 | 0.705 ± 0.0085 | 0.687 ± 0.022 |
| PLHPSSTPATPF | 0.69 ± 0.03 | 0.741 ± 0.0032 | 0.667 ± 0.023 | 0.745 ± 0.023 | 0.677 ± 0.026 | 0.6834 ± 0.0044 | 0.722 ± 0.02 | 0.732 ± 0.034 |

| Sequence | protein stability index [1, 3] | protein stability index [1, 4] | protein stability index [1, 5] | protein stability index [1, 6] | protein stability index [1, 7] | protein stability index [1, 8] | protein stability index [1, 9] | protein stability index [2] |
| --- | --- | --- | --- | --- | --- | --- | --- | --- |
| PLLPPLSTPPPA | 0.69 ± 0.0086 | 0.732 ± 0.023 | 0.663 ± 0.015 | 0.739 ± 0.011 | 0.669 ± 0.022 | 0.677 ± 0.013 | 0.6983 ± 0.0039 | 0.385 ± 0.062 |
| PLPSRAPVQFLL | 0.624 ± 0.012 | 0.754 ± 0.017 | 0.643 ± 0.029 | 0.727 ± 0.0097 | 0.1719 ± 0.0011 | 0.199 ± 0.019 | 0.3725 ± 0.00074 | 0.319 ± 0.021 |
| PLRLRCASLFAN | 0.62 ± 0.021 | 0.692 ± 0.0095 | 0.618 ± 0.034 | 0.737 ± 0.04 | 0.304 ± 0.018 | 0.362 ± 0.019 | 0.5647 ± 0.002 | 0.498 ± 0.086 |
| PLVLPPINLFLV | 0.575 ± 0.071 | 0.729 ± 0.025 | 0.63 ± 0.017 | 0.7373 ± 0.0008 | 0.0842 ± 0.029 | 0.114 ± 0.019 | 0.136 ± 0.021 | 0.189 ± 0.0031 |
| PPLPPPPPHPPP | 0.458 ± 0.045 | 0.52 ± 0.019 | 0.477 ± 0.0095 | 0.521 ± 0.023 | 0.501 ± 0.017 | 0.493 ± 0.04 | 0.4959 ± 0.0011 | 0.488 ± 0.016 |
| PPPLLVRPWFLV | 0.618 ± 0.054 | 0.725 ± 0.013 | 0.612 ± 0.029 | 0.741 ± 0.024 | 0.147 ± 0.018 | 0.157 ± 0.019 | 0.269 ± 0.02 | 0.214 ± 0.05 |
| PPPPHSAPLFLS | 0.604 ± 0.007 | 0.697 ± 0.011 | 0.651 ± 0.019 | 0.694 ± 0.011 | 0.227 ± 0.0096 | 0.261 ± 0.032 | 0.458 ± 0.011 | 0.37 ± 0.0087 |
| PPPPLFLIVLHL | 0.5196 ± 0.0015 | 0.621 ± 0.031 | 0.465 ± 0.03 | 0.642 ± 0.012 | 0.4109 ± 0.0026 | 0.401 ± 0.026 | 0.593 ± 0.023 | 0.434 ± 0.033 |
| PPPPPLAIPHPT | 0.655 ± 0.037 | 0.709 ± 0.013 | 0.661 ± 0.04 | 0.684 ± 0.024 | 0.639 ± 0.011 | 0.674 ± 0.031 | 0.7141 ± 0.0041 | 0.7255 ± 0.0042 |
| PPPPPPLPSPSS | 0.664 ± 0.038 | 0.742 ± 0.024 | 0.64 ± 0.021 | 0.754 ± 0.012 | 0.659 ± 0.015 | 0.68 ± 0.023 | 0.699 ± 0.019 | 0.35 ± 0.0078 |
| PPPPPSRPFSPP | 0.698 ± 0.042 | 0.7412 ± 0.0017 | 0.687 ± 0.0079 | 0.71 ± 0.024 | 0.689 ± 0.0074 | 0.6544 ± 0.0037 | 0.709 ± 0.013 | 0.502 ± 0.015 |
| PPPRSLSPPLLS | 0.642 ± 0.0076 | 0.7372 ± 0.0019 | 0.643 ± 0.025 | 0.704 ± 0.0013 | 0.6711 ± 0.0062 | 0.659 ± 0.014 | 0.681 ± 0.023 | 0.409 ± 0.0037 |
| PPRSRPLLRPLP | 0.699 ± 0.0037 | 0.726 ± 0.012 | 0.666 ± 0.022 | 0.7139 ± 0.0036 | 0.684 ± 0.033 | 0.684 ± 0.022 | 0.708 ± 0.025 | 0.746 ± 0.021 |
| PPSRVSIRLLIR | 0.446 ± 0.025 | 0.473 ± 0.0095 | 0.362 ± 0.021 | 0.461 ± 0.0062 | 0.374 ± 0.0089 | 0.371 ± 0.0086 | 0.448 ± 0.013 | 0.4017 ± 0.0039 |
| PRFLRWLFSLLI | 0.739 ± 0.039 | 0.704 ± 0.012 | 0.705 ± 0.015 | 0.769 ± 0.044 | 0.597 ± 0.0095 | 0.592 ± 0.014 | 0.739 ± 0.041 | 0.515 ± 0.032 |
| PRINTFVVVRVC | 0.102 ± 0.02 | 0.183 ± 0.015 | 0.216 ± 0.038 | 0.336 ± 0.013 | 0.0626 ± 0.015 | 0.0722 ± 0.018 | 0.0609 ± 0.0015 | 0.159 ± 0.042 |
| PSCLLVAPRFSS | 0.672 ± 0.036 | 0.745 ± 0.015 | 0.67 ± 0.022 | 0.712 ± 0.027 | 0.677 ± 0.014 | 0.694 ± 0.019 | 0.715 ± 0.0045 | 0.755 ± 0.017 |
| PSFSLLRSLTLI | 0.6084 ± 0.0024 | 0.7024 ± 0.0056 | 0.6712 ± 0.0021 | 0.699 ± 0.022 | 0.192 ± 0.02 | 0.205 ± 0.022 | 0.413 ± 0.027 | 0.284 ± 0.0073 |
| PTYTKYRTRQIN | 0.528 ± 0.066 | 0.745 ± 0.025 | 0.62 ± 0.011 | 0.7536 ± 0.0066 | 0.0947 ± 0.015 | 0.133 ± 0.04 | 0.156 ± 0.024 | 0.0994 ± 0.044 |
